# Results taken from publication PMC2830148 (Biochemistry, 2009).
# B1: human TRAF2 construct RZ1 (RING and first zinc finger domains, residues 1-133-His), wild type (domain or fragment, UniProt Q12933 1-133, looked up)
# chain: MAAASVTPPGSLELLQPGFSKTLLGTKLEAKYLCSACRNVLRRPFQAQCGHRYCSFCLASILSSGPQNCAACVHEGIYEEGISILESSSAFPDNAARREVESLPAVCPSDGCTWKGTLKEYESCHEGRCPLML
# B2: TRAF2 RZ1 Q46A mutant (domain or fragment, human, UniProt Q12933 1-133, looked up)
# chain: MAAASVTPPGSLELLQPGFSKTLLGTKLEAKYLCSACRNVLRRPFAAQCGHRYCSFCLASILSSGPQNCAACVHEGIYEEGISILESSSAFPDNAARREVESLPAVCPSDGCTWKGTLKEYESCHEGRCPLML
# B3: TRAF2 RZ1 N94A mutant (domain or fragment, human, UniProt Q12933 1-133, looked up)
# chain: MAAASVTPPGSLELLQPGFSKTLLGTKLEAKYLCSACRNVLRRPFQAQCGHRYCSFCLASILSSGPQNCAACVHEGIYEEGISILESSSAFPDAAARREVESLPAVCPSDGCTWKGTLKEYESCHEGRCPLML
# Molecular target: the molecule itself
# Assay: SEC
protein,measurement,value
B1,stoichiometry N,2
B2,binding result,binds
B3,binding result,binds
